The results in this text go back to the nanobody polyreactivity screen of Harvey et al. (2022).

This series can be described thus: yeast display, Sf9 membrane polyspecificity reagent, FACS + sequencing; frameworks hold sequencing errors. In a few lines: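 Galactose induction of a Saccharomyces cerevisiae BJ5465 synthetic nanobody display library ran 36–48 hours. The cells were then stained for 1 hour at 4 °C with 10% biotinylated, detergent-solubilized Sf9 membrane reagent, pulled down on streptavidin microbeads and FACS-sorted into low and high (top ~1%) gates on expression and reagent-binding fluorescence. Labels for polyreactivity follow the gate of origin.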
For “QVQLVESGRGLVQAGGSLRLSCAASGSIFTSYVMGWYRQAPGKERELVAAISQTGSSTYYADSVKGRFTISRDNAKNTVYLQMNSLKPEDTAVYYFAARRSRGSVRNYDYWGQGTKVTVSS”, the “polyreactivity (PSR sort gate)” value is listed as “high polyreactivity”. Next, “QVQLVESGGGLVQAGGSLRLSCAASGSTFEYNDMGWYRQAPGKERELVAAISSGGDTNYADSVKGRFTISRDNAKITVYLQMNSLKPEDTAVYYCAADDWAPYRWYYGYAGYYYWGQGTLVTVSS”: “low polyreactivity”. As to “QVQLVESGGGLVQAGCSLRLSCAASGFTFSYYAMGSYRQAPGKERELVASISRSGNTYYADSVKGRFTISRDNAKNTVYLQMNSLKPEDTAVYYCAAKRKSYYSYNFDYWGQGTQVTVSS”, the “polyreactivity (PSR sort gate)” value is listed as “high polyreactivity”. Take “QVQLVESGGGLVQAGGSLRLSCAASGFIFTYYAMGWYRQAPGKERELVAAIRRGGNTYYADSVKGRFTISRDNAKNTVYLQMNSLKPEDTAVYYCAASAGPRASYYYWGQGTQVTVSS”: the “polyreactivity (PSR sort gate)” value is reported as “high polyreactivity”. Consider “QVQLVESGGGLVQAGGSLRLSCAASGYIFDRYAMGWYRQAPGKERELVAAITNGGRTYYADSVKGRFTISRDNAKNTVYLQMNSLKPEDTAVYYCAAVVYSRGYYWGQGTQVTVSS”, for which the “polyreactivity (PSR sort gate)” value is given as “high polyreactivity”. The value for “QVQLVESGGGLVQAGGSLRLSCAASGFIFSYYAMGWYRQAPGKERELVAANSSSGGTTYADSVKGRFTISRDNAKNTVYLQMNSLKPEDTAVYYCARVQYWFYKPMYYWGQGTQVTVSS” was “high polyreactivity”.

On to “QVQLVESGGGLVQAGGSLRLSCAASGRTFYVYAMGWYRQAPGKERELVAAISADGGRTYYADSVKGRFTISRDNAKNTVYLQMNSLKPEDTAVYYCAAWRHTLGDYWGQGTQVNVSS”, for which the “polyreactivity (PSR sort gate)” value is “high polyreactivity”. Regarding “QVQLVESGGGLVQAGGSLRLSCAASGSTFPWYVMGWYRQAPGKERELVAAISWSGGRTYYADSVKGRFTISRDNAKNTVYLQMNSLKPEDTAVYYCAADLSYWRGGHSRNYWGQGTQVTVSS”, the “polyreactivity (PSR sort gate)” value is reported as “low polyreactivity”. The value for “QVQLVESGGGLVQAGGSLRLSSAASGRIFIGNAMGWYRQAPGKERELVAAISKGGGSTYYADSVKGRFTISRDNAKNTVYLQMNSLKPEDTAVYYCNKLRYPLLPPKYYYWGQGTQVTVSS” was “high polyreactivity”; that for “QVQLVESGGGLVQAGGSLRLSCAASGFTFAVYDMGWYRQAPGKERELVAVISSVGSTNYADSVKGRFTISRDNAKNTVYLQMNSLKPEDTAVYYCNAVYWYRDRWYQTGYGYWGQGTQVTVSS” was “high polyreactivity”. On to “QVQLQESGGGLVQAGGSLRLSCAASGTISPLPAMGWYRQAPGKEREFVAGIDTGAITNYADSVKGRFTISRDNGKNTVYLQMNSLNPEDTAVYYCAVFRGAYDYYEGYYTYWGQGTQVTVSS”, for which the “polyreactivity (PSR sort gate)” value is “low polyreactivity”. The value for “QVQLVESGGGLVQAGGSLRLSCAASGRTFVPYAMGWYRQAPGKERELVATNNRSGGTTYYADSVKGRFTISRDNAKNTVYLQMNSLKPEDTAVYYCNKSPYYTVWSTRGNQFSRFYYWGQGTQVTVSS” was “high polyreactivity”. As for “QVQLVESGGGLVQAGASLRLSCAASGCTFVVNAMGWYRQAPGKERELVAAITDGSSTNYADSVKGRFTISRDNAKYTVYLQMTRLIRQDTAVYFCAAVPYIDLDDINVEHPQYGYWGQGTQVTVSS”, the “polyreactivity (PSR sort gate)” value is recorded as “low polyreactivity”. With “QVQLVESGGGIVQAGVSLRLSCAASGINIDYYAMGWYRQAPGKERELVAAITSGGSTSYADSVKGRFTISRDNAKNTVYLQMNSLKAEDTAVYYCNTEPSGYESGYWGQGTQVTVSS”, the “polyreactivity (PSR sort gate)” value is listed as “low polyreactivity”. Next, “QVQLVESGGGLVQAGGSLRLSCAASGLTFAYYAMGWYIQAPGKERELVAAITWNGGSTYYADSVKGRFTISRDNSKNTVYLQMNSLKPEDTAVYYCAASWGYCYSGRFDYWGQGTEVTVSS”: “high polyreactivity”; “QVQLVESGGGLVQAGGSLRLSCAASGRIFAYYAMGWYRQAPGKERELVADITRSGARTYYADSVKGRFTISRDNANNTVYLQMNSLTPEDTAVYYCAAEGVRIGTRYDYWGQGTQVTVSS”: “high polyreactivity”; “QVQLVESGVGLVQAGGSLRLSCAASGSIFYVYAMGWYRQAPGKERELVAAITNYADSVKGRFTISRDNAKNTVYLQMNSLKPEDTAVYYCAADWWRVEMDYWGQGTQVTVSS”: “low polyreactivity”. With “QVQLEESGGGLVQAGGSLRLSCAASGRTFVWYAMGWYRQAPGKERELVAAISRSGGSTYYADSVKGRFTISRDNAKNTVYLQMNSLKPEDTAVYYCAAEFYIAPPYDYWGQGTQVTVSS”, the “polyreactivity (PSR sort gate)” value is on record as “high polyreactivity”. In the case of “QVQLVESGGALVQAGGSLRLSCAASGFTFIPNAMGWYRQAPGKERELVAAIYSSGGTTYYADSVKGRFTISRDTAKNTVYLQMNSLKTEDTAVYYCARRVYGYYIPYNYWGQATQVTVSS”, the “polyreactivity (PSR sort gate)” value is given as “high polyreactivity”.

As for “QVQLVESGGGLVQAGGSLRLSCAASGTIFSRNAMGWYRQAPGKERELVAAINARGGSTYYADSVKGRFTISRDNAKNTVYLQMNSLKPEDTAVYYCAARYGVGRADYYWGQGTQVTVSS”, the “polyreactivity (PSR sort gate)” value was “high polyreactivity”. The value for “QVQLVESGGGLVQAGGSLRLSCAASGFTIGKNAMGWYRQAPGKERELVAAISLSGGRTYADSVKGRFTISRDNAKNTVYLQMNSLKPEDTAVYYCAANRYPKFYWGQGTQVTVSS” was “high polyreactivity”. The value for “QVQLVESGGGLVQAGGSLRLSSAASGGILPIYAMGWYRQAPGKERELVATITGSGGGTYADSVKGRFTISRDNAKNTVYLQMNSLKPEDTAVYYCNADLGPVGHIDGYSYYDYDYWGQGTQVTVSS” was “low polyreactivity”; that for “QVQLVESGGGLVQAGGSLRVSCAASGGILRGYAMGWYRQARGKEWELVAAISRGGRTNYADSVKGRFTISRDNAKNTVYLQMNSLKPEDTAVYYCAKRYARGENDYWGQGTQVTVSS” was “high polyreactivity”. The value for “QVQLVESGGGLVQAGGSLRLSCAASGRIFGNTAMGWYRQAPGKERELVAAIRSRGTRTYYADSVKGRFTISRDNAKNTVYLQMNSLKPEDTAVYYCATTSLTGRYDRYDYWGQGTQVTVSS” was “high polyreactivity”. On to “QVQLVESGGGLVQEGGSLRLICAASGRIFGDYGMGWYRQAPGKERELVAAITDRGGTTYYADSVKGRFTISRDNAKNTVYLQMNSLNPEDTAVYYCNARQSDIFDYDYWGQGTQVTVSS”, for which the “polyreactivity (PSR sort gate)” value is reported as “low polyreactivity”. For “QVQLVESGGGLVQAVGSLRLSCASSGYTFDYYTMGWYRQAPGKERELVARITASGGSTYYADSVKGRFTISRDNAKNTVYLQMNSLKPEDTAVYYCAKAWYRYSRFDYWGQGTQVTVSS”, the “polyreactivity (PSR sort gate)” value is given as “high polyreactivity”. For “QVQLVESGGGLVQAGGSLRLSCAASGIFTYNAMGWYRQAPGKERELVASITRGGSTNYADSVKGRFTISRDNAKNTVYLQMNSLKPEDTAVYYCAARVRVYSGWLYNYWGQGTQVTVSS”, the “polyreactivity (PSR sort gate)” value is reported as “high polyreactivity”.

For the sequence “QVQLVESGGGLVQAGGSLRLSCAASGIIFRLNTMGWYRPAPGTERELVAAITSGGSTHYADSVKGRFTISRDNAKNTVYLQRISLNPEDTAVYYCAAGHRAKYWAWHFYYPGDYWGQGTQVTVSS”, the “polyreactivity (PSR sort gate)” value is “low polyreactivity”.

For “QVQLVESGGGLVQAGGSLRLSCAASGSIFNYYAMGWYRPAPGKERELVAGITTSGGSTYYADSVKGRFTISRDNAKNTVYLQMNSLKPEDTAVYYCAAYDYISSTYFLDDYWGQGTQVTVSS”, the “polyreactivity (PSR sort gate)” value is on record as “low polyreactivity”. The value for “QVQLVESGGGLVQAGGSLRLSCAASGRIFKSYAMGWDRQAPGKERELVAAISRSGGRTYYADSVKGRFTISRDNAKNTVYLQMNSLKPEDTAVYYCAATTIVAPYWGQGTQVTVSS” was “low polyreactivity”.
